Where “and” joins values, the source holds several entries; their conditions need not be identical. Equal values may be shown once.

Consider one molecule from patent US20260275317A1, “CHIMERIC ENDOLYSINS WITH ACTIVITY AGAINST STREPTOCOCCI AND STAPHYLOCOCCI” (UNIVERSITEIT GENT, priority 2023, published 2026).

For assay [1], the system named is S. uberis, S. aureus, S. agalactiae and S. dysgalactiae. The experiment in a line: 2 h time killing assay in PBS and UHT-milk, relative in vitro scoring. Type of assay: cell-based. The settings on record: 0.25 μM. How it is done:
(§1) Concerning the time killing assay, an overnight bacterial culture was diluted 1:10 for S. uberis, S. agalactiae-& dysgalactiae or 1:100 for S. aureus in PBS or UHT-pasteurized whole cow's milk. A volume of 10 μL thereof was combined with an equal amount of chimeric endolysin in PBS (or only PBS as negative control) in triplicate and incubated in a covered 96-well microtiter plate at 37° C. for 2 h. […] Finally, these fractions were serially diluted 1:10 in PBS. 5 μL of each fraction was spotted on TSA or BHI-agar and incubated overnight at 37° C. The following day, colony forming units (CFU) were counted and converted to CFU/mL to calculate logarithmic reductions in comparison with the negative control. The relative scores were calculated by dividing the observed logarithmic reduction for each endolysin by the maximal reduction observed for that specific condition and strain. Next, this value was divided by the number of conditions and strains tested (i.e., 8=4 bacterial strains×2 conditions (PBS/UHT-milk)). As such, the best performing candidate in each individual assay received a score of 0.125 (=(1/1)/8). […] Turbidity reduction assays were performed by combining 100 μL of overnight grown bacterial cells with an equal volume of purified enzyme at the desired concentration. Bacterial cells were washed with PBS and resuspended in a 1:1 ratio with enzyme to an OD600 of approximately 1.0. Next, the OD600 was measured using a Tecan infinite 200 PRO plate reader (Tecan, Switzerland) every 15 seconds at 37° C., shaking the 96-well plate between each measurement.
Stationary phase S. uberis 0140J or S. aureus N305 and one randomly chosen clinical isolate of S. uberis, S. aureus, S. agalactiae and S. dysgalactiae were challenged with a final concentration of 0.25 μM endolysin in a 2 h time killing assay (TKA) in both phosphate buffered saline (PBS) and ultra-high temperature pasteurized whole cow's milk (UHT-milk).

Assay [2] relates to stationary phase S. uberis. The experiment in a line: Time killing assay (TKA), S. uberis. To be noted: for ΔLog10 (CFU/mL): 1 h. Type of assay: cell-based, Streptococcus uberis. The method, then: as §1, with “milk.” for “milk. A volume of 10 μL thereof was combined with an equal amount of chimeric endolysin in PBS (or only PBS as negative control) in triplicate and incubated in a covered 96-well microtiter plate at 37° C. for 2 h.”
(§2) Time killing and turbidity reduction assays were performed as previously described in 1.3.1.
(§3) Time killing assays were performed as previously described in 1.3.1.

The next assay concerns S. dysgalactiae. The assay can be described thus: Time killing assay (TKA), S. dysgalactiae. Type of assay: cell-based, Streptococcus dysgalactiae. To be noted: 0.3 μM. The method, then: as §1, with “milk.” for “milk. A volume of 10 μL thereof was combined with an equal amount of chimeric endolysin in PBS (or only PBS as negative control) in triplicate and incubated in a covered 96-well microtiter plate at 37° C. for 2 h.”
as §2, §3

Assay [3] has as its system S. uberis GCC ST-143 biofilm. The assay can be described thus: Biofilm eradication assay. Type of assay: cell-based, Streptococcus uberis. The settings on record: 1.5 μM, 2 h30, 37° C. The method, then:
Biofilms were grown by transferring mid-log phase bacteria (OD600=0.6) grown in brain heart infusion (BHI) (Oxoid, Belgium) containing 0.25% α-D-glucose (ThermoFisher Scientific, USA) to a nunclon delta-treated, U-shaped-bottom 96-well microplate (ThermoFisher Scientific, USA). This whole was incubated for 21-24 h in a box containing a wet tissue. Subsequently, media and planktonic cells were removed and 1.5 µM of chimeric endolysin was allowed to eradicate the biofilms during 2 h30 at 37° C. on a shaker at 120 rpm. […] Biomass was fixated with 100% ethanol (ThermoFisher Scientific, USA) and stained with crystal violet (0.1% crystal violet (Sigma-Aldrich, USA), 5% methanol and isopropanol (ThermoFisher Scientific, USA) in PBS. Triple washing with PBS by inverting the plate was executed before solubilizing the stained biomass in 30% acetic acid (Chem-Lab, Belgium). OD590 nm was measured using a CLARIOstar Plus plate reader (BMG Labtech, The Netherlands). Logarithmic reductions were determined by scraping biomass from the wells with a sterile tooth picker followed by resuspension in PBS, which was subsequently serially diluted and spotted on BHI-agar. CFU/mL were counted after overnight incubation at 37° C.

Assay [4] relates to S. uberis in mastitic raw cow's milk. The assay can be described thus: Challenge of mastitic raw cow's milk. Type of assay: cell-based, Streptococcus uberis. To be noted: milk of 4 cows, 8 h; 0.5 μM NC5, 50 μg/mL cloxacillin or both. How it is done: Raw cow's milk from S. uberis infected dairy cows was supplied by the milk control center of Flanders (MCC Vlaanderen). Upon arrival, the milk was serially diluted and plated on BHI agar to determine the bacterial load. Only milk with >10^5 […] CFU/mL S. uberis was included as a selection criterium. If needed, the raw milk was incubated during 8 h at 37° C. to artificially increase the initial bacterial load. […] Upon incubation at 37° C., every 2 h, 20 μL was transferred from each well to 180 μL dPBS, serially diluted and plated on BHI agar. Plates were incubated overnight and CFU/mL were calculated the next day. Undiluted, mastitic milk was always pipetted with ClipTip Pipette Tips (Westburg, The Netherlands) due to high viscosity. Mastitis isolates were confirmed as S. uberis by MALDI-TOF MS biotyping.

B1: NC5: chimeric endolysin SEQ ID NO: 17; HIV-1 TAT + PlySs2 CHAP + Ply1081 CW_7 + PlySs9 amidase_3 (protein)
chain: MYGRKKRRQRRRGATTVNEALNNVRAQVGSGVSVGNGECYALASWYERMISPDATVGLGAGVGWVSGAIGDTISAKNIGSSYNWQANGWTVSTSGPFKAGQIVTLGATPGNPYGHVVIVEAVDGDRLTILEQNYGGKRYPVRNYYSAASYRQQVVHYITPPGTVAQSAPNLAGAGIDQLVQETLAGKYGNGEQRKAALGSQYQAVMAVINGKATAPKKTVDQLAQEVIQGKHGNGEDRKKSLGPDYDAVQKRVTEILKGSPSGNIPKTPSDAPKSEVVNSSTEPKTEETGANGKATDTKITKGSGKHLVICGHGQGRTGYDPGAVNAKLGITEAGKVRELSKLMSKYSGQQIDFITEQNVYDYRSITSIGKGYDSITELHFNAFNGSAKGTEVLIQSSLEADKEDMAILSLLSRYFQNRGIKKVDWLYNANQAASRGYTYRLVEIAFIDNEQDMAIFENKKEDIAKGLVSAITGVEVKTIVPSPPSSTVGSSGTPSKSIYLVGDSLRVLPHATHYQTGQKIANWVKGRTYKILQVKNVHQSNSKRAYLLDGIKSWVLEQDVEGTTKGHSKYHHHHHH
B1: the “ranking by cumulative relative in vitro score” value in assay [1] is “overall best performing candidates”. Moreover, the “ΔLog10 (CFU/mL)” value was 0.03 Log10 (CFU/mL) in assay [2] (Clinical S. uberis 1 (Unknown ST and GCC), 0.3 μM); 4.05±0.07 Log10 (CFU/mL) and 4.05 Log10 (CFU/mL) in assay [2] (Clinical S. uberis 2 (Unknown ST, GCC 5), 0.3 μM); 1.82 Log10 (CFU/mL) in assay [2] (Clinical S. uberis 3 (Unknown ST, GCC 5), 0.3 μM); 0.00 Log10 (CFU/mL) in assay [2] (Clinical S. uberis 4 (ST 815, GCC 143), 0.3 μM); 0.71 Log10 (CFU/mL) in assay [2] (Clinical S. uberis 5 (ST 944, GCC 5), 0.3 μM); 3.02±0.37 Log10 (CFU/mL) and 3.02 Log10 (CFU/mL) in assay [2] (Subclinical S. uberis 1 (ST 808, GCC 143), 0.3 μM). The “ΔLog10 (CFU/mL)” value in assay [2] (Subclinical S. uberis 2 (Unknown ST and GCC), 0.3 μM) was 1.13 Log10 (CFU/mL); in assay [2] (Subclinical S. uberis 3 (Unknown ST, GCC 5), 0.3 μM) it was 1.24 Log10 (CFU/mL); in assay [2] (Subclinical S. uberis 4 (Unknown ST and GCC), 0.3 μM) it was 2.48 Log10 (CFU/mL); in the assay on S. dysgalactiae (S. dysgalactiae 1, 1 h) it was 1.77 Log10 (CFU/mL); in the assay on S. dysgalactiae (S. dysgalactiae 2, 1 h) it was 0.15 Log10 (CFU/mL); with S. dysgalactiae (S. dysgalactiae 3, 1 h) it was 1.11 Log10 (CFU/mL). The “Δ log10” value in assay [2] (S. uberis 0140J, 0.3 μM) was 1.16±0.06 log10. For the same molecule, the log10 reduction in assay [2] (mastitis-derived S. uberis GCC ST-5, 0.3 μM, versus PBS) stood at 1.17±0.06 log10; in the assay with S. dysgalactiae (mastitis-derived S. dysgalactiae, versus PBS) it was 1.11±0.17 log10. For the same molecule, the “Δ log10, reductions up to” value in the assay on S. dysgalactiae (three clinical S. dysgalactiae isolates) is at most 1.77±0.43 log10. In assay [3], the “reduction of biofilm mass (crystal violet)” value is on record as “significant (p<0.001) reduction of the biofilm mass”. In assay [3], the “Δ Log10 reduction of biofilm CFU” value is listed as 1.17±0.39 Log10. Further, the “log10 reduction of S. uberis versus PBS control” value in assay [4] is “caused a log10 reduction in all mastitic milk samples after 8 h”.
